The assay concerns Fibroblasts. The assay is described as follows: Hyaluronic acid production by cultured fibroblasts (ELISA of culture medium). The following applies: fibroblast culture; even at the lowest concentrations tested. The format is cell-based. As to the method:
Fibroblasts were seeded into individual wells of a 12-well plate in 1.0 ml of Fibroblast Growth Media (FGM) and incubated overnight at 37±2° C. and 5±1% CO2. On the following day the media was removed via aspiration to eliminate non-adherent cells and replaced with 1.0 ml of fresh FGM. Cells were grown until confluent, with a media change every 48 to 72 hours. Upon reaching confluency the cells were treated for 24 hours with DMEM supplemented with 1.5% FBS to eliminate growth factors from the normal culture media. After this 24-hour wash-out period the cells were treated with the indicated test materials (i.e., milk-derived products containing lactoferrin) at the specified concentrations dissolved in FGM with 1.5% FBS. Dibutyrl cAMP (DBcAMP) at 0.1 mM was used as a positive control. Untreated cells (negative control) received FGM with 1.5% FBS. The cells were incubated for 48 hours and at the end of the incubation period cell culture medium was collected and either stored frozen (−75° C.) or assayed immediately. All testing was done in triplicate.
A series of hyaluronic acid standards from 50 ng/ml to 3,200 ng/ml was prepared. […] After incubation, 50 μl of stop solution was added to each well and the absorbance was measured at 405 nm using a plate reader. Hyaluronic acid production was expressed as ng/ml and results are shown in Table 1 and the graph of FIG. 1.
(In an ELISA, binding on a coated surface is turned into a signal by an enzyme label.)

These results are taken from US20090215693A1, “METHODS FOR INCREASING HYALURONIC ACID LEVELS AND IMPROVING MOISTURE RETENTION IN TISSUE” (priority 2008, published 2009).

B1: bovine milk-derived lactoferrin: multi-functional protein found in mammalian milk, primarily in the whey fraction (protein, UniProt P24627 20-708, looked up)
Lactotransferrin: APRKNVRWCTISQPEWFKCRRWQWRMKKLGAPSITCVRRAFALECIRAIAEKKADAVTLDGGMVFEAGRDPYKLRPVAAEIYGTKESPQTHYYAVAVVKKGSNFQLDQLQGRKSCHTGLGRSAGWIIPMGILRPYLSWTESLEPLQGAVAKFFSASCVPCIDRQAYPNLCQLCKGEGENQCACSSREPYFGYSGAFKCLQDGAGDVAFVKETTVFENLPEKADRDQYELLCLNNSRAPVDAFKECHLAQVPSHAVVARSVDGKEDLIWKLLSKAQEKFGKNKSRSFQLFGSPPGQRDLLFKDSALGFLRIPSKVDSALYLGSRYLTTLKNLRETAEEVKARYTRVVWCAVGPEEQKKCQQWSQQSGQNVTCATASTTDDCIVLVLKGEADALNLDGGYIYTAGKCGLVPVLAENRKSSKHSSLDCVLRPTEGYLAVAVVKKANEGLTWNSLKDKKSCHTAVDRTAGWNIPMGLIVNQTGSCAFDEFFSQSCAPGADPKSRLCALCAGDDQGLDKCVPNSKEKYYGYTGAFRCLAEDVGDVAFVKNDTVWENTNGESTADWAKNLNREDFRLLCLDGTRKPVTEAQSCHLAVAPNHAVVSRSDRAAHVKQVLLHQQALFGKNGKNCPDKFCLFKSETKNLLFNDNTECLAKLGGRPTYEEYLGTEYVTAIANLKKCSTSPLLEACAFLTR
Turning to B1, the “hyaluronic acid levels compared with untreated fibroblasts” value is “detectable and significant increase”.
